Data taken from doi:10.1101/2024.07.16.603692.

Target: CBP-UPF1-CH-HD (aa 115-914) (human) (UniProt Q92900)
Assay: MST

## UPF2(770-1204) (from UniProt Q9HAU5 770-1204) (domain or fragment)
  Kd: 10 nM
